According to patent publication US5721126:

Target: T1, ScaI restriction endonuclease (Streptomyces caespitosus) (UniProt O52691)
T1 sequence: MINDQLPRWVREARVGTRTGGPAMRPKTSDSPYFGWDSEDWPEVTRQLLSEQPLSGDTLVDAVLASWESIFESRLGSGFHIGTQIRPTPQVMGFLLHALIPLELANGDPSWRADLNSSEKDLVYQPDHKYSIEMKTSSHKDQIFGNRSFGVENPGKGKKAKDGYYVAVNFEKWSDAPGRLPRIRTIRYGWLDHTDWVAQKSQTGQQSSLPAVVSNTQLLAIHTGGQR
Test: cleavage_in_vitro
Details: diluted cell extract, 1 ug DNA, 37 C, 1 h

lambda DNA (ScaI sites)
activity (units/g wet cells): 1e+06
